T1: M1 protein (Streptococcus pyogenes, UniProt Q99XV0 1-484)
T1 sequence: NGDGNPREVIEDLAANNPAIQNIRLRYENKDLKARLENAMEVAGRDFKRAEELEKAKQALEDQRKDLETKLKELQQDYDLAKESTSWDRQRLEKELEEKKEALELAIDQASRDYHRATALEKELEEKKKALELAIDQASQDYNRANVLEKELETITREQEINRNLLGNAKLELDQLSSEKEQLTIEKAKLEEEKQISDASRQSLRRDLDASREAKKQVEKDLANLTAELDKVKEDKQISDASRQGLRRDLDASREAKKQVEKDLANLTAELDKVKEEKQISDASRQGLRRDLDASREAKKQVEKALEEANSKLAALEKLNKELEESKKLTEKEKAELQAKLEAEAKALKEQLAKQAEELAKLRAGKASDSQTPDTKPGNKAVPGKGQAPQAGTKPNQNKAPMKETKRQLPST

T2: M5 protein (Streptococcus pyogenes, UniProt P02977 43-461)
T2 sequence: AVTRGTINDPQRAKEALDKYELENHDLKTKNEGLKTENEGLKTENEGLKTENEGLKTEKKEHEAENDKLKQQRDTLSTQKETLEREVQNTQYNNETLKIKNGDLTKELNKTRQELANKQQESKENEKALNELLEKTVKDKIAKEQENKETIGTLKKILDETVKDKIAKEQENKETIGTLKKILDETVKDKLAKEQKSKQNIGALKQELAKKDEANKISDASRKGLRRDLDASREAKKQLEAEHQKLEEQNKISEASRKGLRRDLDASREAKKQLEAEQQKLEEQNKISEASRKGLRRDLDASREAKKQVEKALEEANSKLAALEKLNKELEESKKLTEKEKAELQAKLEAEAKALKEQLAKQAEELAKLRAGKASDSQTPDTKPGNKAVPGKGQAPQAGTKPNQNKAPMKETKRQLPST


What was measured:
[1] = biological target: M3 protein (Streptococcus pyogenes) (UniProt Q54841)
[2] = biological target: M3 protein (Streptococcus pyogenes) (UniProt Q54841); remark: listed apart in the source
[3] = biological target: M3 protein (Streptococcus pyogenes) (UniProt Q54841); remark: listed apart in the source
[4] = biological target: T1, M1 protein; experiment: cell-based or functional assay
[5] = biological target: T2, M5 protein; experiment: cell-based or functional assay

| Molecule | platelet activation: percentage of platelets positive for CD62P, flow cytometry of platelet-rich plasma, median of 10 donors (background 3%) [1] | platelet-monocyte complex formation: percentage of monocytes positive for CD61, flow cytometry of whole blood, median of 10 donors (background 4%) [2] | platelet-neutrophil complex formation: percentage of neutrophils positive for CD61, flow cytometry of whole blood, median of 10 donors (background 18%) [2] | monocyte activation: fold increase of CD11b median fluorescence intensity above background, flow cytometry of whole blood, 10 donors [3] | neutrophil activation: fold increase of CD11b median fluorescence intensity above background, flow cytometry of whole blood, 10 donors [3] | monocyte activation: fold increase of CD11b median fluorescence intensity above background, flow cytometry of whole blood, 10 donors [4] | neutrophil activation: fold increase of CD11b median fluorescence intensity above background, flow cytometry of whole blood, 10 donors [4] | monocyte activation: fold increase of CD11b median fluorescence intensity above background, flow cytometry of whole blood, 10 donors [5] | neutrophil activation: fold increase of CD11b median fluorescence intensity above background, flow cytometry of whole blood, 10 donors [5] |
| --- | --- | --- | --- | --- | --- | --- | --- | --- | --- |
| human fibrinogen (from UniProt P02671 36-866; P02675 45-491; P02679 27-453) (natural protein) | 55% | 17% | 53% | 3 fold | 5 fold | – | – | – | – |
| human fibrinogen (natural protein) chain 1: GPRVVERHQSACKDSDWPFCSDEDWNYKCPSGCRMKGLIDEVNQDFTNRINKLKNSLFEYQKNNKDSHSLTTNIMEILRGDFSSANNRDNTYNRVSEDLRSRIEVLKRKVIEKVQHIQLLQKNVRAQLVDMKRLEVDIDIKIRSCRGSCSRALAREVDLKDYEDQQKQLEQVIAKDLLPSRDRQHLPLIKMKPVPDLVPGNFKSQLQKVPPEWKALTDMPQMRMELERPGGNEITRGGSTSYGTGSETESPRNPSSAGSWNSGSSGPGSTGNRNPGSSGTGGTATWKPGSSGPGSTGSWNSGSSGTGSTGNQNPGSPRPGSTGTWNPGSSERGSAGHWTSESSVSGSTGQWHSESGSFRPDSPGSGNARPNNPDWGTFEEVSGNVSPGTRREYHTEKLVTSKGDKELRTGKEKVTSGSTTTTRRSCSKTVTKTVIGPDGHKEVTKEVVTSEDGSDCPEAMDLGTLSGIGTLDGFRHRHPDEAAFFDTASTGKTFPGFFSPMLGEFVSETESRGSESGIFTNTKESSSHHPGIAEFPSRGKSSSYSKQFTSSTSYNRGDSTFESKSYKMADEAGSEADHEGTHSTKRGHAKSRPVRDCDDVLQTHPSGTQSGIFNIKLPGSSKIFSVYCDQETSLGGWLLIQQRMDGSLNFNRTWQDYKRGFGSLNDEGEGEFWLGNDYLHLLTQRGSVLRVELEDWAGNEAYAEYHFRVGSEAEGYALQVSSYEGTAGDALIEGSVEEGAEYTSHNNMQFSTFDRDADQWEENCAEVYGGGWWYNNCQAANLNGIYYPGGSYDPRNNSPYEIENGVVWVSFRGADYSLRAVRMKIRPLVTQ chain 2: GHRPLDKKREEAPSLRPAPPPISGGGYRARPAKAAATQKKVERKAPDAGGCLHADPDLGVLCPTGCQLQEALLQQERPIRNSVDELNNNVEAVSQTSSSSFQYMYLLKDLWQKRQKQVKDNENVVNEYSSELEKHQLYIDETVNSNIPTNLRVLRSILENLRSKIQKLESDVSAQMEYCRTPCTVSCNIPVVSGKECEEIIRKGGETSEMYLIQPDSSVKPYRVYCDMNTENGGWTVIQNRQDGSVDFGRKWDPYKQGFGNVATNTDGKNYCGLPGEYWLGNDKISQLTRMGPTELLIEMEDWKGDKVKAHYGGFTVQNEANKYQISVNKYRGTAGNALMDGASQLMGENRTMTIHNGMFFSTYDRDNDGWLTSDPRKQCSKEDGGGWWYNRCHAANPNGRYYWGGQYTWDMAKHGTDDGVVWMNWKGSWYSMRKMSMKIRPFFPQQ chain 3: YVATRDNCCILDERFGSYCPTTCGIADFLSTYQTKVDKDLQSLEDILHQVENKTSEVKQLIKAIQLTYNPDESSKPNMIDAATLKSRKMLEEIMKYEASILTHDSSIRYLQEIYNSNNQKIVNLKEKVAQLEAQCQEPCKDTVQIHDITGKDCQDIANKGAKQSGLYFIKPLKANQQFLVYCEIDGSGNGWTVFQKRLDGSVDFKKNWIQYKEGFGHLSPTGTTEFWLGNEKIHLISTQSAIPYALRVELEDWNGRTSTADYAMFKVGPEADKYRLTYAYFAGGDAGDAFDGFDFGDDPSDKFFTSHNGMQFSTWDNDNDKFEGNCAEQDGSGWWMNKCHAGHLNGVYYQGGTYSKASTPNGYDNGIIWATWKTRWYSMKKTTMKIIPFNRLTIGEGQQHHLGGAKQVRPEHPAETEYDSLYPEDDL | – | – | – | – | – | 7 fold | 14 fold | 4 fold | 9 fold |
